# Reference: patent publication US12427163B2, “Anti-VTCN1 antibodies and antibody drug conjugates” (Bluefin BioMedicine, Inc., priority 2017, dated 2025)
# T1: human VTCN1 protein (Homo sapiens, UniProt Q7Z7D3)
# T1 construct: His
# T1 sequence (Q7Z7D3 25-282): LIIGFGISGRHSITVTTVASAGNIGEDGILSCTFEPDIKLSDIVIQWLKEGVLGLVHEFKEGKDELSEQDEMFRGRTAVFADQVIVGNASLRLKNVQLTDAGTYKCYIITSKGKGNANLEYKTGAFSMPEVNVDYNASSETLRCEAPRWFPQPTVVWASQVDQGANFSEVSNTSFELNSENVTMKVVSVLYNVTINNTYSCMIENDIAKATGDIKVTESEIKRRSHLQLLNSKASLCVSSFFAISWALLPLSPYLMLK
# T2: mouse VTCN1 protein (Mus musculus, UniProt Q7TSP5)
# T2 construct: His
# T2 sequence (Q7TSP5 25-257): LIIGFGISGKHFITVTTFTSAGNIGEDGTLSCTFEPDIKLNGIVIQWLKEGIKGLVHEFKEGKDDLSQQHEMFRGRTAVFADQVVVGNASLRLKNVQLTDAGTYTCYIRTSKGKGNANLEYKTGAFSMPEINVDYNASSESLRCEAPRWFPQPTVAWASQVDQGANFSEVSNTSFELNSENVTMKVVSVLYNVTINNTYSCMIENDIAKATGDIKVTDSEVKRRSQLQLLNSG
# How the values were obtained:
# Format in all cases: binding
# [1] = molecular target: T1, human VTCN1 protein; test: Affinity to recombinant VTCN1-his by OCTET Red (Protein A biosensors); conditions: for Kdis (human) / Kon (human): Table 5; for K(off) / k(on): Table 9; for Human K(off) / Human k(on): Table 12
# Description: (§1) The affinity of antibodies to recombinant VTCN1 was determined on an OCTET™ Red (Pall, ForteBio) instrument. After loading reagents into a 96-well plate, the OCTET™ Red with Protein A-conjugated biosensors was programmed as follows: 30 seconds for baseline #1; 45 seconds to immobilize the antibody; 30 seconds for baseline #2; 300 seconds for association of antibody to recombinant VTCN1-his; and 300 seconds for dissociation of recombinant VTCN1-his from the antibody. Table 5 lists the affinity measured for selected antibodies.
# [2] = tested on: cynomolgus monkey VTCN1 protein; test: Affinity by OCTET, cynomolgus monkey VTCN1; conditions: Table 12
# Description: as §1, with “antibody.” for “antibody. Table 5 lists the affinity measured for selected antibodies.”
# [3] = molecular target: T2, mouse VTCN1 protein; test: Affinity by OCTET, mouse VTCN1; conditions: Table 12
# Description: as §1
Molecule,Kdis (human) [1],Kon (human) [1],K(off) [1],k(on) [1],also measured
"6E2: mouse anti-human VTCN1 antibody; VH SEQ ID NO: 33, VL SEQ ID NO: 37 (antibody, V domains shown) VH: QIQLQESGPGLVQPSQSLSITCTVSGFSLTSYGVQWVRQSPGKGLEWLGVIWSGGSTDYNAAFISRLSISKDNSKSQVFFKMNSLQADDTAIYYCARDISTIVEGFAHWGQGTLVTVSS VL: NIVMTQSPKSMSMSVGERVTLSCKASEKVGTYVSWYQQKPEQSPKLLIYGASNRYTGVPDRFTGSGSATDFTLTISSVQAEDLADYHCGQSYRYPFTFGSGTKLEIK",7.46 × 10^−3,9.41 × 10^5,,,
"7F10: mouse anti-human VTCN1 antibody; VH SEQ ID NO: 137, VL SEQ ID NO: 141 (antibody, V domains shown) VH: QVQLQQSGPGLVQPSQSLSITCTVSGFSLTSYGIHWVRQSPGKGLEWLGVIWSSGSTDYNAAFISRLSISKDNSKSQVFFKMNSLQSDDTAIHYCARDITTIAEGFAYWGQGTLVTVSA VL: NIVMTQSPKSMSMSVGERVTLSCKASENVGTYVSWYQQKPEQSPKLLIYGASNRYTGVPDRFTGSGSATDFTLTISSVQAEDLADYHCGQSYSYPFTFGSGTKLEIK",5.94 × 10^−3,1.15 × 10^6,,,
"10D1: mouse anti-human VTCN1 antibody; VH SEQ ID NO: 57, VL SEQ ID NO: 61 (antibody, V domains shown) VH: QVQLQESGPELVKPGASVKLSCKASGYIFTDYTIHWLKQSPGQGLEWIGWIYPGSGHTHYNDKFKGKATMTADKSSTTAYMQLSSLTSEDSAVFFCARGGESITTVFPLAYWGQGTLVTVSA VL: DIVMSQSPSSLAVSVGEKVTMSCKSSQSLLYSSDQKNYLAWYQQKPGQSPKLLIYWASTWESGVPDRFIGSGSGTDFTLTVSSVKAEDLAVYYCHQYYSYPPTFGAGTKLEIK",4.04 × 10^−3,9.83 × 10^5,,,
"3G10: mouse anti-human VTCN1 antibody; VH SEQ ID NO: 17, VL SEQ ID NO: 21 (antibody, V domains shown) VH: QIQLKESGPGLVQPSQSLSITCTVSGFSLTSYGVHWVRQSPGKGLEWLGVIWSGGYTDYNSAFISRLSISKDNSKSQVFFKMNSLQADDTAIYYCARDITTIVEGFAYWGQGTLVTVSA VL: IIVMTQSPKSMSMSVGERITLNCKASENVGTYVSWYQQKPEQSPKLLIYGASNRYTGVPDHFTGSGSATDFTLTISSVQAEDLADYHCGQTYSYPFTFGSGTKLEIK",1.26 × 10^−2,1.07 × 10^6,,,
"5A12: mouse anti-human VTCN1 antibody; VH SEQ ID NO: 105, VL SEQ ID NO: 109 (antibody, V domains shown) VH: QVQLQQSGPGLVQPSQSLSITCTVSGFSLTSYGVQWVRQSPGKGLEWLGVIWSSGSTDYNAAFISRLSINKDNSKSQVFFKMNSLQPDDTAIYYCARDITTIVEGFAYWGQGTLVTVSA VL: IIVMTQSPKSMSMSVGERVTLSCKASENVGTYVSWYQQKPEQSPKLLIYGASNRYTGVPDRFTGSGSATDFTLTISSVQAEDLADYHCGQSYSYPFTFGSGTKLEIK",1.64 × 10^−3,3.93 × 10^5,,,
"hu6D9_57A3: humanized 6D9 antibody; VH SEQ ID NO: 220, VL SEQ ID NO: 224 (antibody, V domains shown) VH: QVQLVESGGGVVQPGRSLRLSCAVSGFSLTSYGVQWVRQAPGKGLEWLGVIWSSGSTDYNAAFLSRLTISKDNSKNTVYFQMNSLRAEDTAVYYCARDVTTIVEGFAHWGQGTLVTVSS VL: DIQMTQSPSSLSASVGDRVTITCKASEKVGTYVSWYQQKPGKAPKLLIYGASNRYTGVPSRFSGSGSGTDFTLTISSLQPEDFATYYCGQTYSYPFTFGQGTKLEIK",,,2.27E−03,8.21E+04,
"hu6D9_57A4: humanized 6D9 antibody; VH SEQ ID NO: 228, VL SEQ ID NO: 224 (antibody, V domains shown) VH: QVQLVESGPGVVQPGRSLRLSCAVSGFSLTSYGVQWVRQAPGKGLEWLAVIWSSGSTDYNAAFLSRLTISKDNSKSTVYFQMNSLRAEDTAVYYCARDVTTIVEGFAHWGQGTLVTVSS VL: DIQMTQSPSSLSASVGDRVTITCKASEKVGTYVSWYQQKPGKAPKLLIYGASNRYTGVPSRFSGSGSGTDFTLTISSLQPEDFATYYCGQTYSYPFTFGQGTKLEIK",,,2.26E−03,6.21E+04,
"hu6D9_57A5: humanized 6D9 antibody; VH SEQ ID NO: 232, VL SEQ ID NO: 224 (antibody, V domains shown) VH: QVQLVESGGGVVQPGRSLRLSCAVSGFSLTSYGVQWVRQAPGKGLEWLAVIWSSGSTDYNAAFLSRLTISKDNSKNTVYFQMNSLRAEDTAVYYCARDVTTIVEGFAHWGQGTLVTVSS VL: DIQMTQSPSSLSASVGDRVTITCKASEKVGTYVSWYQQKPGKAPKLLIYGASNRYTGVPSRFSGSGSGTDFTLTISSLQPEDFATYYCGQTYSYPFTFGQGTKLEIK",,,2.89E−03,8.14E+04,
"hu6D9_66B1: humanized 6D9 antibody; VH SEQ ID NO: 236, VL SEQ ID NO: 224 (antibody, V domains shown) VH: QVQLVESGGGVVQPGRSLRLSCAVSGFTFSSYGVQWVRQAPGKGLEWLGVIWSSGSTDYNAAFLSRLTISKDNSKNTVYFQMNSLRAEDTAVYYCARDVTTIVEGFAHWGQGTLVTVSS VL: DIQMTQSPSSLSASVGDRVTITCKASEKVGTYVSWYQQKPGKAPKLLIYGASNRYTGVPSRFSGSGSGTDFTLTISSLQPEDFATYYCGQTYSYPFTFGQGTKLEIK",,,3.25E−03,1.20E+05,
"7G7_44C6: fully human VTCN1 antibody; VH SEQ ID NO: 256, VL SEQ ID NO: 260 (antibody, V domains shown) VH: QVQLQESGPGLVKPSETLSLTCTVSGGSISHYYWSWIRQPPGKGLEWIGYIYYSGPTNYNPSLKSRVTISVDTSKNQFSLKLSSVTAADTAVYYCARTYYYGSGSFPDAFDIWGQGTMVTVSS VL: KIVLTQSPATLSLSPGERATLSCRASQSVSSYLAWYQQTPGQAPRLLIYDASNRATGIPARFSVSGSGTDFTLTISSLEPEDFAVYYCQQRSSWPLTFGGGTKLEIK",,,,,Human K(off) [1]: 1.62E−01; Human k(on) [1]: 8.42E+05; cynomolgus monkey k(off) [2]: 1.50E−01; cynomolgus monkey k(on) [2]: 6.61E+05; Kd [3]: > 500 nM
"13H9_44D2: fully human VTCN1 antibody; VH SEQ ID NO: 272, VL SEQ ID NO: 276 (antibody, V domains shown) VH: QVQLQESGPGLVKPSETLSLTCTVSGGSISSYYWSWIRQPPGKGLEWIGYIYYSGSTNNNPSLKSRVTISVDTSKNQFSLKLISVTAADTAVYYCARVYNNYDWGFDYWGQGTLVTVSS VL: EIVMTQSPATLSVSPGERATLSCRASQSVSSNLAWYQQKPGQAPRLLIYGASTRATGIPARFSGSGSGTEFTLTIRSLQSEDFAVYYCQQYHNWPLTFGGGTKLEIK",,,,,Human K(off) [1]: 1.71E−01; Human k(on) [1]: 1.33E+06; cynomolgus monkey k(off) [2]: 1.67E−01; cynomolgus monkey k(on) [2]: 1.16E+06; mouse k(off) [3]: 5.79E−01; mouse k(on) [3]: 2.16E+06
